The values that follow come from patent publication US20110070245.

The target in the first data set is IMP-1 (IGF2BP1) (Homo sapiens) (UniProt Q9NZI8). Put plainly: pulldown. The following applies: RIP-microarray, A549 cells.
Chain of IMP-1 (IGF2BP1) (Homo sapiens) (Q9NZI8 whole entry): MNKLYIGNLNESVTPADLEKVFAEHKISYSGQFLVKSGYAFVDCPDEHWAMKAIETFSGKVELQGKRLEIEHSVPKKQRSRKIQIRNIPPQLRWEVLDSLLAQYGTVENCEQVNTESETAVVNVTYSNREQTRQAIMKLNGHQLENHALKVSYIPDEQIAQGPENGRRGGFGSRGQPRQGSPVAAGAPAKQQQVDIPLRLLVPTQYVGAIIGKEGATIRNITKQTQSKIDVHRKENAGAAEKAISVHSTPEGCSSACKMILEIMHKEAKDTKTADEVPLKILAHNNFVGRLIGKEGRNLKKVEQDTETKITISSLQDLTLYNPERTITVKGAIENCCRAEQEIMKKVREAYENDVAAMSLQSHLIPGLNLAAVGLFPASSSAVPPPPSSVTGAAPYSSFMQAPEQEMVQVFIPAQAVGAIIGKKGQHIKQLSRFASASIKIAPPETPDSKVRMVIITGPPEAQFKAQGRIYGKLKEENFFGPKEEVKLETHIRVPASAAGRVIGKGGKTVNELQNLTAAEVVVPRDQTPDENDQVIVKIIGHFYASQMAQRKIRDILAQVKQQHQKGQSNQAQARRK
The substance CPSF6 mRNA displayed a binding signal (fold IP/total RNA) of 2.24. Substance YTHDF1 mRNA gave a binding signal (fold IP/total RNA) of 7.99. L3MBTL3 mRNA gave a binding signal (fold IP/total RNA) of 3.19. Consider MGC27277 mRNA, for which the binding signal (fold IP/total RNA) was found to be 3.43. Consider HMBS mRNA, for which the binding signal (fold IP/total RNA) stood at 2.48.

LPGAT1 mRNA had a binding signal (fold IP/total RNA) of 3.14. On to AMIGO2 mRNA, for which the binding signal (fold IP/total RNA) is 5.65. On to C17orf39 mRNA, for which the binding signal (fold IP/total RNA) turned out to be 2.57. Still for that read-out and setting: the figure for RAN mRNA is 81.9.

On to CRYAA mRNA, for which the binding signal (fold IP/total RNA) is 9.77. For the substance PTP4A1 mRNA, the binding signal (fold IP/total RNA) is 3. In turn, SYNGR3 mRNA returned a binding signal (fold IP/total RNA) of 12.3. On the same count and under the same terms, the figure for RNF20 mRNA is 2.01; for UBE2S mRNA it is 6.78. For C20orf142 mRNA, the binding signal (fold IP/total RNA) came out at 3.21. DDX1 mRNA: the binding signal (fold IP/total RNA) turned out to be 34.2.

On to PDF mRNA, for which the binding signal (fold IP/total RNA) amounted to 4.18. For LASP1 mRNA, the binding signal (fold IP/total RNA) was found to be 2.66.

Substance SYNJ2 mRNA gave a binding signal (fold IP/total RNA) of 2.56.

Staying with this data set, now noted: RNA immunoprecipitation (FLAG then HA) and cDNA microarray, A549 cells.
Substance SMAD3 mRNA had a binding signal (fold IP/total RNA) of 720.
